# From patent publication US6051217, “Therapeutic uses of interleukin-3 (IL-3) multiple mutation polypeptides” (G. D. Searle & Co., dated 2000)
# T1: hIL-3 receptor (human, UniProt P26951)
# T1 sequence: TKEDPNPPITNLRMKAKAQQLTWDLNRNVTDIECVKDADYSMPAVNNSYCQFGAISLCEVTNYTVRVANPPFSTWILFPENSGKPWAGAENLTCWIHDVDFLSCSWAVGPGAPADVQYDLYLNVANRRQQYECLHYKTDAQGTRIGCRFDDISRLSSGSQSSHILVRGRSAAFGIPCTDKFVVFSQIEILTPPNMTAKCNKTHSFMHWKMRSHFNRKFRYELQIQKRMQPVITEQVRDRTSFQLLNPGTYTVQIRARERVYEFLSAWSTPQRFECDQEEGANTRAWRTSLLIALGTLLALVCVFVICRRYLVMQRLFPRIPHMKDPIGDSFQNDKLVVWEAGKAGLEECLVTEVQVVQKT
# Target: T1, hIL-3 receptor
# Test: cell-based or functional assay
row,"EC50, AML 193 cell proliferation assay",Binder
1,0.0302 nM,"native human interleukin-3, (1-133)hIL-3 (ligand) MAPMTQTTSLKTSWVNCSNMIDEIITHLKQPPLPLLDFNNLNGEDQDILMENNLRRPNLEAFNRAVKSLQNASAIESILKNLLPCLPLATAAPTRHPIHIKDGDWNEFRRKLTFYLKTLENAQAQQTTLSLAIF"

# Target: T1, hIL-3 receptor
# Test: cell-based or functional assay
# Remark: another data set of the same source
row,Relative Biological Activity (AML 193 proliferation),Binder
1,21.5 EC50 (1-133)hIL-3 / EC50 mutant,pMON13446 polypeptide (ligand) MAYPETDYKDDDDKNCSIMIDEIIHHLKRPPAPLLDPNNLNAEDVDILMERNLRLPNLESFVRAVKNLENASGIEAILRNLQPCLPSATAAPSRHPIIIKAGDWQEFREKLTFYLVTLEQAQEQQ
2,20 EC50 (1-133)hIL-3 / EC50 mutant,pMON13390 polypeptide (ligand) MAYPETDYKDDDDKNCSIMIDEIIHHLKRPPNPLLDPNNLNSEDMDILMERNLRTPNLLAFVRAVKHLENASGIEAILRNLQPCLPSATAAPSRHPIIIKAGDWQEFREKLTFYLVTLEQAQEQQ
3,1 EC50 (1-133)hIL-3 / EC50 mutant,"native human interleukin-3, (1-133)hIL-3 (ligand) MAPMTQTTSLKTSWVNCSNMIDEIITHLKQPPLPLLDFNNLNGEDQDILMENNLRRPNLEAFNRAVKSLQNASAIESILKNLLPCLPLATAAPTRHPIHIKDGDWNEFRRKLTFYLKTLENAQAQQTTLSLAIF"
4,0.6 EC50 (1-133)hIL-3 / EC50 mutant,pMON13413 polypeptide (ligand) MANCSIMIDEIIHHLKRPPNPLLDPNNLNSEDMDILMERNLRTPNLLAFVRAVKHLENASGIEAILRNLQPCLPSATAAPSRHPIIIKAGDWQEFRLKLQFYLSSLEQAQEQQ
5,> 0.0003 EC50 (1-133)hIL-3 / EC50 mutant,pMON13426 polypeptide (ligand) MANCSIAIDEIIHHLKRPPNPLLDPNNLNSEDVDILDERNLRTPNLLAFVRAVKHLENASGIEAILRNLQPCLPSATAAPSRHPIIIKAGDWQEFREKLTFYLVTLEQAQEQQ
6,0.015 EC50 (1-133)hIL-3 / EC50 mutant,pMON13419 polypeptide (ligand) MANCSIMIDEIIHHLKRPPNPLLDPNNLNSEDMDILMDSNLLTPNLLAFPHASKQLENASGIEAILRNLQPCLPSATAAPSRHPIIIKAGDWQEFRLKLQFYLSSLEQAQEQQ
7,0.4 EC50 (1-133)hIL-3 / EC50 mutant,pMON13422 polypeptide (ligand) MANCSIAIDEIIHHLKRPPNPLLDPNNLNSEDVDILIERNLRTPNLLAFVRAVKHLENASGIEAILRNLQPCLPSATAAPSRHPIIIKAGDWQEFREKLTFYLVTLEQAQEQQ
8,0.4 EC50 (1-133)hIL-3 / EC50 mutant,pMON13423 polypeptide (ligand) MANCSIIIDEIIHHLKRPPNPLLDPNNLNSEDVDILIERNLRTPNLLAFVRAVKHLENASGIEAILRNLQPCLPSATAAPSRHPIIIKAGDWQEFREKLTFYLVTLEQAQEQQ
9,3 EC50 (1-133)hIL-3 / EC50 mutant,pMON13424 polypeptide (ligand) MANCSIAIDEIIHHLKRPPNPLLDPNNLNSEDVDILLERNLRTPNLLAFVRAVKHLENASGIEAILRNLQPCLPSATAAPSRHPIIIKAGDWQEFREKLTFYLVTLEQAQEQQ
10,4 EC50 (1-133)hIL-3 / EC50 mutant,pMON13414 polypeptide (ligand) MANCSIIIDEIIHHLKRPPNPLLDPNNLNSEDMDILMERNLRTPNLLAFVRAVKHLENASGIEAILRNLQPCLPSATAAPSRHPIIIKAGDWQEFREKLTFYLVTLEQAQEQQ
11,6 EC50 (1-133)hIL-3 / EC50 mutant,pMON13425 polypeptide (ligand) MANCSIIIDEIIHHLKRPPNPLLDPNNLNSEDVDILLERNLRTPNLLAFVRAVKHLENASGIEAILRNLQPCLPSATAAPSRHPIIIKAGDWQEFREKLTFYLVTLEQAQEQQ
12,0.008 EC50 (1-133)hIL-3 / EC50 mutant,pMON13428 polypeptide (ligand) MANCSIMIDEIIHHLKRPPNPLLDPNNLNSEDMDILMERNLRTPNLLAFVRAVKHLENASGIEPILSNLQPCVPYWTAPPSRTPITIKAGDWQEFRLKLQFYLSTLEQAQEQQ
13,0.16 EC50 (1-133)hIL-3 / EC50 mutant,pMON13467 polypeptide (ligand) MANCSIMIDELIHHLKIPPNPSLDSANLNSEDVSILMERNLRTPNLLAFVRAVKHLENASGIEAILRNLQPCLPSATAAPSRHPIIIKAGDWQEFRLKLQFYLSSLEQAQEQQ
14,4 EC50 (1-133)hIL-3 / EC50 mutant,pMON13415 polypeptide (ligand) MANCSIIIDEIIHHLKRPPNPLLDPNNLNSEDVDILMERNLRTPNLLAFVRAVKHLENASGIEAILRNLQPCLPSATAAPSRHPIIIKAGDWQEFREKLTFYLVTLEQAQEQQ
15,> 0.0002 EC50 (1-133)hIL-3 / EC50 mutant,pMON13429 polypeptide (ligand) MANCSIIIDEIIHHLKRPPNPLLDPNNLNSEDVDILDERNLRTPNLLAFVRAVKHLENASGIEAILRNLQPCLPSATAAPSRHPIIIKAGDWQEFREKLTFYLVTLEQAQEQQ
16,0.5 EC50 (1-133)hIL-3 / EC50 mutant,pMON13418 polypeptide (ligand) MANCSIMIDEIIHHLKRPPNPLLDPNNLNSEDMDILMERNLRTPNLLAFVRAVKHLENASGIEPILSNLQPCVPYWTAPPSRTPITIKAGDWQEFREKLTFYLVTLEQAQEQQ
17,0.003 EC50 (1-133)hIL-3 / EC50 mutant,pMON13459 polypeptide (ligand) MANCSIMIDELIHHLKIPPNPSLDSANLNSEDVSILMERNLRTPNLLAFVRAVKHLENASGIEPILSNLQPCVPYWTAPPSRTPITIKAGDWQEFRLKLQFYLSTLEQAQEQQ
18,0.5 EC50 (1-133)hIL-3 / EC50 mutant,pMON13412 polypeptide (ligand) MANCSIMIDEIIHHLKRPPNPLLDPNNLNSEDMDILMERNLRTPNLLAFVRAVKHLENASGIEAILRNLQPCLPSATAAPSRHPIIIKAGDWQEFRLKLQFYLSTL
19,9 EC50 (1-133)hIL-3 / EC50 mutant,pMON13440 polypeptide (ligand) MANCSIMIDEAIHHLKIPPNPSLDSANLNSEDVSILMERNLRTPNLLAFVRAVKHLENASGIEPILRNLQPCLPSATAAPSRTPIIIKAGDWQEFREKLTFYLVTLEQAQEQQ
20,0.1 EC50 (1-133)hIL-3 / EC50 mutant,pMON13451 polypeptide (ligand) MANCSIILDEAIHHLKIPPNPSLDSANLNSEDVSILMERNLRTPNLLAFVRAVKHLENASGIEPILRNLQPCLPSATAAPSRTPIIIKAGDWQEFREKLTFYLVTLEQAQEQQ
